Blank lines part the entries; values can stand above or below the binder they belong to.
Legend:
[1] = target: T1, cynomolgus 5T4 ectodomain fused to the human IgG1-Fc domain (cynomolgus monkey; human, UniProt Q4R8Y9 35-355); assay: SPR (BIAcore), immobilized 5T4-Fc, pH not printed in this row (7.4 by the order of the table); row shifted one column to the left; pH 7.4
T1 construct: range 1-355; also called cyno5T4; not shown: Fc constant region from human IgG1
T1 sequence (looked up): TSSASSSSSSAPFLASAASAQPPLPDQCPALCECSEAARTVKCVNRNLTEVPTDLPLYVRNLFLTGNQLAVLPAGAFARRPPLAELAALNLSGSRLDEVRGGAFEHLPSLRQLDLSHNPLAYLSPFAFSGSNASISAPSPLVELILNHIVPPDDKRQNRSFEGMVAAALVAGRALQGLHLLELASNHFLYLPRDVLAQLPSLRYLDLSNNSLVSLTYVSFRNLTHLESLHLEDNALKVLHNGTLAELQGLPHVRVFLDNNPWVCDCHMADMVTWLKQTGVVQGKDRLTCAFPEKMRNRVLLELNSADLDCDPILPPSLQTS
Experimental: (§1) Surface plasmon resonance (SPR) analysis is performed utilizing the BIAcore® to determine the affinity constants for A1-IgG1 and A1-IgG4 binding to either human or cynomolgus 5T4 at pH 6.0 and pH 7.4. BIAcore® technology utilizes changes in the refractive index at the surface layer upon binding of the huA1 antibody variants to the human 5T4 protein immobilized on the surface layer. Binding is detected by SPR of laser light refracting from the surface. Analysis of the signal kinetics on-rate and off-rate allows the discrimination between non-specific and specific interactions. The 5T4 proteins used for this analysis consisted of the human or cynomolgus 5T4 ectodomain fused to the human IgG1-Fc domain and low densities (45.1 and 45.4 RU for human and cynomolgus respectively) are immobilized onto a CM5 chip to accurately measure affinity constants.
(§2) The measurement of specific binding to the 5T4 ectodomain is attained by subtracting binding to a reference surface that had only human IgG1-Fc protein immobilized onto the CM5 chip at the same density to that on the 5T4-Fc surfaces. Next, various concentrations of A1, A1-IgG4, or A3 antibodies in either HBS-EP pH 7.4 or MES-EP pH 6.0 buffer are injected over the surface. The surface is regenerated two times with Glycine pH 1.7+0.05% Surfactant P20 (GE Healthcare, BR-1000-54) between injection cycles.

[2] = target: T2, human 5T4 ectodomain fused to the human IgG1-Fc domain (human, UniProt Q13641 32-355); assay: SPR (BIAcore), immobilized 5T4-Fc, pH 6.0
T2 construct: also called hu5T4; 5T4-Fc; not shown: Fc constant region from human IgG1
T2 sequence: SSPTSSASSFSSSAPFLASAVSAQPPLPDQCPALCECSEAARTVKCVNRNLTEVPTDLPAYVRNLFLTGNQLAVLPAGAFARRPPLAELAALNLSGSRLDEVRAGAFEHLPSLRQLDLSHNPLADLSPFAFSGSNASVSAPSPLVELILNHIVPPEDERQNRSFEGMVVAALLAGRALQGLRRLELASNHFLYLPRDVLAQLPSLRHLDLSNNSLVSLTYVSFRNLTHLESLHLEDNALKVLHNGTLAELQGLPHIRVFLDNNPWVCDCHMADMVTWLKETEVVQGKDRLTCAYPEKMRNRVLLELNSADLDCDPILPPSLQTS
Experimental: as §1, §2

[3] = target: T1, cynomolgus 5T4 ectodomain fused to the …; assay: SPR (BIAcore), immobilized 5T4-Fc, pH 6.0
Experimental: as §1, §2

[4] = target: T1, cynomolgus 5T4 ectodomain fused to the …; assay: SPR (BIAcore), immobilized 5T4-Fc, pH not printed in this row (7.4 by the order of the table); row shifted one column to the left; pH 7.4 (pH cell missing; inferred from the order of the table)
Experimental: as §1, §2

[5] = target: T2, human 5T4 ectodomain fused to the human …; assay: SPR (BIAcore), immobilized 5T4-Fc, pH 7.4
Experimental: as §1, §2

mouse 5T4 = target: T3, mouse 5T4 (mouse, UniProt Q9Z0L0 32-361, limits assumed); assay: ELISA (Example 7)
T3 sequence (looked up): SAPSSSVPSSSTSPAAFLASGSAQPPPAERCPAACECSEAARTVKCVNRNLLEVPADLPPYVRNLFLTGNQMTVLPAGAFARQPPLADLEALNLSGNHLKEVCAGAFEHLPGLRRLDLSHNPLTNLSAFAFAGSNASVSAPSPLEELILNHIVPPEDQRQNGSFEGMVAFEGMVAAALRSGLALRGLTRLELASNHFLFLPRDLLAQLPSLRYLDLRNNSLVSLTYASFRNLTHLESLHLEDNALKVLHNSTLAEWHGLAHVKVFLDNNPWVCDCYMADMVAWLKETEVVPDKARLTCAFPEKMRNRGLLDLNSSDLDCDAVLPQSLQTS

[6] = target: T2, human 5T4 ectodomain fused to the human …; assay: SPR (BIAcore), immobilized 5T4-Fc, pH 7.4; remark: listed apart in the source
Experimental: as §1, §2

[7] = target: T1, cynomolgus 5T4 ectodomain fused to the …; assay: SPR (BIAcore), immobilized 5T4-Fc, pH 7.4
Experimental: as §1, §2

[8] = target: T4, Human 5T4 antigen on cells (human, UniProt Q13641 32-420); assay: flow cytometry, 10 ug/mL, PC3mm2 cells
T4 construct: also called 5T4 oncofetal antigen
T4 sequence: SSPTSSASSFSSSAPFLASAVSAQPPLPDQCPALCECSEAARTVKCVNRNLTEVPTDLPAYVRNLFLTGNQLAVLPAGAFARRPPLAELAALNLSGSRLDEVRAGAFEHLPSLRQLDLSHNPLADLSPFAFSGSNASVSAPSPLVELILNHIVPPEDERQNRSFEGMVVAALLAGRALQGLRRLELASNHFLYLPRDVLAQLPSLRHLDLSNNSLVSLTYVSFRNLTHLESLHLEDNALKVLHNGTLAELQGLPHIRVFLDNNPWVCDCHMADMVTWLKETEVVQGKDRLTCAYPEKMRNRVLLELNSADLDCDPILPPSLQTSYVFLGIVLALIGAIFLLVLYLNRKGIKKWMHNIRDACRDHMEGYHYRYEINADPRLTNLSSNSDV
Experimental: (§3) Cells expressing the 5T4 antigen, and the negative control Raji cells, are plated at a density of 500,000 cells/well on non-tissue culture treated 96 well plates and kept on ice. Dilutions of the A1 and A1-IgG4 antibodies or A1-mcMMAF ADC are made in 3% bovine serum albumin BSA in Dulbecco's phosphate buffered saline (DPBS) and added to the plate at a final concentration of 10 μg/mL. The plates are then incubated on ice for 1 hour followed by 2 washes. The secondary antibody, PE (phycoerythrin) conjugated Goat Anti-Human IgG Fc is added to the wells. After 30 minutes of incubation at 4 C, the mean fluorescence intensity is then measured using a flow cytometer.

[9] = target: T2, human 5T4 ectodomain fused to the human …; assay: SPR (BIAcore), low-density 5T4-Fc surface, pH 6.0
Experimental: as §1, §2

[10] = target: T1, cynomolgus 5T4 ectodomain fused to the …; assay: SPR (BIAcore), low-density 5T4-Fc surface, pH 6.0
Experimental: as §1, §2

[11] = target: T4, Human 5T4 antigen on cells; assay: flow cytometry, 10 ug/mL, MDAMD361-DYT2 cells
Experimental: as §3

[12] = target: T4, Human 5T4 antigen on cells; assay: flow cytometry, 10 ug/mL, MDAMB468 cells
Experimental: as §3

[13] = target: T2, human 5T4 ectodomain fused to the human …; assay: SPR (BIAcore), immobilized 5T4-Fc, pH 6.0; remark: listed apart in the source
Experimental: as §1, §2

[14] = target: T1, cynomolgus 5T4 ectodomain fused to the …; assay: SPR (BIAcore), immobilized 5T4-Fc, pH 6.0; remark: listed apart in the source
Experimental: as §1, §2

[15] = target: T2, human 5T4 ectodomain fused to the human …; assay: SPR (BIAcore), low-density 5T4-Fc surface, pH 7.4
Experimental: as §1, §2

[16] = target: T1, cynomolgus 5T4 ectodomain fused to the …; assay: SPR (BIAcore), low-density 5T4-Fc surface, pH 7.4
Experimental: as §1, §2

[17] = target: T1, cynomolgus 5T4 ectodomain fused to the …; assay: SPR (BIAcore), immobilized 5T4-Fc, pH 7.4; remark: listed apart in the source
Experimental: as §1, §2

[18] = target: T4, Human 5T4 antigen on cells; assay: flow cytometry, 10 ug/mL, A431 cells
Experimental: as §3

Kd [1]: 0.82 nM
koff [1]: 0.000162 s⁻¹
Kd [2]: 0.12 nM
koff [2]: 4.17e-05 s⁻¹
kon [2]: 351000 M⁻¹ s⁻¹
Kd [3]: 0.41 nM
koff [3]: 0.000187 s⁻¹
kon [3]: 458000 M⁻¹ s⁻¹
kon [4]: 198000 M⁻¹ s⁻¹
Kd [5]: 0.17 nM
koff [5]: 3.06e-05 s⁻¹
kon [5]: 179000 M⁻¹ s⁻¹
binding result (mouse 5T4): no binding
B1: A3 (a mouse/human chimeric antibody) (antibody, human IgG1, kappa, V domains shown)
VH: EVQLVESGGGLVQPKGSLKLSCAASGFTFNTYAMNWVRQAPGKGLEWVARIRSKSNNYATYYADSVKDRFTISRDDSQSMLYLQMNNLKTEDTAMYYCVRQWDYDVRAMNYWGQGTLVTVSS
VL: DIVMTQSHIFMSTSVGDRVSITCKASQDVDTAVAWYQQKPGQSPKLLIYWASTRLTGVPDRFTGSGSGTDFTLTISNVQSEDLADYFCQQYSSYPYTFGQGTKLEIKR
notes: also called Chimeric A3; muA3-huIgG1

Kd [6]: 0.48 nM
koff [6]: 0.000132 s⁻¹
kon [6]: 275000 M⁻¹ s⁻¹
Kd [7]: 1.8 nM
koff [7]: 0.000273 s⁻¹
kon [7]: 151000 M⁻¹ s⁻¹
Mean Fluorescent Intensity [8]: 3400
fold higher affinity relative to A1-IgG4 [9]: 1.5 fold
fold better binding compared to A1-IgG4 [10]: 1.7 fold
Mean Fluorescent Intensity [11]: 7000
Kd [2]: 1.06 nM
koff [2]: 0.000459 s⁻¹
kon [2]: 431000 M⁻¹ s⁻¹
Kd [3]: 2.76 nM
koff [3]: 0.000641 s⁻¹
kon [3]: 233000 M⁻¹ s⁻¹
Mean Fluorescent Intensity [12]: 3500
Kd [13]: 1.06 nM
koff [13]: 0.000459 s⁻¹
kon [13]: 431000 M⁻¹ s⁻¹
Kd [14]: 2.76 nM
koff [14]: 0.000641 s⁻¹
kon [14]: 233000 M⁻¹ s⁻¹
fold higher affinity relative to A1-IgG4 [15]: 1.2 fold
fold better binding compared to A1-IgG4 [16]: 1.2 fold
Kd [5]: 0.48 nM
koff [5]: 0.000132 s⁻¹
kon [5]: 275000 M⁻¹ s⁻¹
Kd [17]: 1.8 nM
koff [17]: 0.000273 s⁻¹
kon [17]: 151000 M⁻¹ s⁻¹
binding result (mouse 5T4): no binding
Mean Fluorescent Intensity [18]: 3900
B2: A1 (a humanized anti-5T4 IgG1 antibody) (antibody)
heavy: not shown
light: DIQMTQSPSSLSASVGDRVTITCKASQSVSNDVAWYQQKPGKAPKLLIYFATNRYTGVPSRFSGSGYGTDFTLTISSLQPEDFATYYCQQDYSSPWTFGQGTKVEIKRTVAAPSVFIFPPSDEQLKSGTASVVCLLNNFYPREAKVQWKVDNALQSGNSQESVTEQDSKDSTYSLSSTLTLSKADYEKHKVYACEVTHQGLSSPVTKSFNRGEC
notes: also called A1-IgG1; A1 antibody

Kd [6]: 0.52 nM
koff [6]: 0.000172 s⁻¹
kon [6]: 328000 M⁻¹ s⁻¹
Kd [7]: 2.11 nM
koff [7]: 0.000382 s⁻¹
kon [7]: 181000 M⁻¹ s⁻¹
Mean Fluorescent Intensity [8]: 2100
Mean Fluorescent Intensity [11]: 5500
Mean Fluorescent Intensity [12]: 2500
Kd [13]: 1.43 nM
koff [13]: 0.000893 s⁻¹
kon [13]: 626000 M⁻¹ s⁻¹
Kd [14]: 4.7 nM
koff [14]: 0.00095 s⁻¹
kon [14]: 202000 M⁻¹ s⁻¹
Mean Fluorescent Intensity [18]: 2400
B3: A1-IgG4 (a humanized anti-5T4 IgG4 antibody) (antibody)
heavy: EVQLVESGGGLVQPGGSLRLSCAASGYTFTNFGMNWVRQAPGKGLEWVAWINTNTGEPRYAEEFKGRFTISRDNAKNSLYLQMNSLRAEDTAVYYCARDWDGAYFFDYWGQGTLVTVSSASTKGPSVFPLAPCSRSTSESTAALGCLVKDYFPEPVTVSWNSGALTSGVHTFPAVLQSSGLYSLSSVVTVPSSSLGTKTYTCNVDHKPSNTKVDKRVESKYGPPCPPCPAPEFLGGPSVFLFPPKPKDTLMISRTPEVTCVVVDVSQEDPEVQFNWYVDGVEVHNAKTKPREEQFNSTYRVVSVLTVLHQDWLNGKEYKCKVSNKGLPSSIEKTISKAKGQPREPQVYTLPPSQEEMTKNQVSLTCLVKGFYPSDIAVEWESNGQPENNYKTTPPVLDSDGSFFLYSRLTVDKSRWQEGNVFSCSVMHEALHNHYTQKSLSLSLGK
light: B2 light
notes: Same variable domains as A1, human IgG4m heavy chain; also called A1-IgG4 Ab; Humanized A1 human IgG4m

Reference: patent US20170319711A1 (Pfizer, published 2017)
